# Measured values taken from patent US20250171534A1 (D2M BIOTHERAPEUTICS, published 2025).
# Columns and labels:
# [1] = target: T1, LILRA1 expressed on cells (human, UniProt O75019 17-489); assay: flow cytometry on CHO-LILRA1 cells, non-linear fit of the curves of FIG. 26E
# T1 construct: whole, on cells; GFP-tagged; also called human LILRA1; CHO-LILRA1
# [2] = target: T2, LILRA6 expressed on cells (human, UniProt Q6PI73 24-481); assay: flow cytometry on 293T cells transiently expressing LILRA6, APC anti-human Fc; gMFI as fold to IgG staining
# T2 construct: whole, on cells; GFP-tagged; also called human LILRA6; CHO-LILRA6
# [3] = target: T3, LILRB2-ECD-HIS (SinoBiological Cat #: 14132-H02H) (human, UniProt Q8N423 22-460); assay: SPR (Carterra), LILRB2-ECD-his
# T3 construct: Bought protein; also called monomeric antigen LILRB2-ECD-HIS; not shown: His tag
# [4] = target: T4, human LILRB1 expressed on cells (human, UniProt Q8NHL6 24-650); assay: flow cytometry, CHO-LILRB1 cells
# T4 construct: In 293T cells it was expressed from pCMV3-LILRB1-GFP; also called CHO-LILRB1; Jurkat-LILRB1
# [5] = target: T4, human LILRB1 expressed on cells; assay: flow cytometry on CHO-LILRB1 cells (CHO-RB1), titrated antibody, labelled anti-human Fc, gMFI
# [6] = target: T5, LILRB3 expressed on cells (human, UniProt O75022 24-631); assay: flow cytometry on 293T cells transiently expressing LILRB3, APC anti-human Fc; gMFI as fold to IgG staining
# T5 construct: whole, on cells; Expressed with a GFP tag from the bought plasmid; also called human LILRB3; CHO-LILRB3
# [7] = target: T1, LILRA1 expressed on cells; assay: flow cytometry on CHO-LILRA1 cells (CHO-RA1), titrated antibody, labelled anti-human Fc, gMFI
# [8] = target: T6, LILRB5 expressed on 293T cells (UniProt O75023 24-590, limits assumed); assay: flow cytometry on 293T cells transiently expressing LILRB5, APC anti-human Fc; gMFI as fold to IgG staining
# T6 construct: whole, on cells; GFP-tagged, transient
# [9] = target: T7, human LILRB2 expressed on cells (human, UniProt Q8N423 22-597); assay: flow cytometry on CHO-LILRB2 cells (CHO-RB2), titrated antibody, labelled anti-human Fc, gMFI
# T7 construct: In 293T cells it was expressed from pCMV3-LILRB2-GFP; also called CHO-LILRB2; Jurkat-LILRB2
# [10] = target: T4, human LILRB1 expressed on cells; assay: flow cytometry, CHO-LILRB1 cells; blocked ligand: APC HLA-G trimer tetramer
# [11] = target: T7, human LILRB2 expressed on cells; assay: flow cytometry, CHO-LILRB2 cells
# [12] = target: T3, LILRB2-ECD-HIS (SinoBiological Cat #: …); assay: BLI (Gator), RB2-ECD-his
# [13] = target: T7, human LILRB2 expressed on cells; assay: flow cytometry on CHO-LILRB2 cells, non-linear fit of the curves of FIG. 26B
# [14] = target: T4, human LILRB1 expressed on cells; assay: flow cytometry, Jurkat-LILRB1 cells
# [15] = target: T8, LILRA3 expressed on 293T cells (UniProt Q8N6C8 24-439, limits assumed); assay: flow cytometry on 293T cells transiently expressing LILRA3, APC anti-human Fc; gMFI as fold to IgG staining
# T8 construct: whole, on cells; GFP-tagged, transient
# [16] = target: T3, LILRB2-ECD-HIS (SinoBiological Cat #: …); assay: SPR (Carterra LSA), antibody captured, antigen injected;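 note: kd obtained from kinetic analysis of antibody binding to the antigen, with association and dissociation phases fitted in the instrument software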
# [17] = target: T9, LILRB1-ECD-HIS (SinoBiological Cat #: 16014-H02H) (human, UniProt Q8NHL6 24-461); assay: as above
# T9 construct: Bought protein; also called monomeric antigen LILRB1-ECD-HIS; not shown: His tag
# [18] = target: T7, human LILRB2 expressed on cells; assay: flow cytometry, Jurkat-LILRB2 cells
# [19] = target: T4, human LILRB1 expressed on cells; assay: flow cytometry, CHO-LILRB1 cells; remark: listed apart in the source
# [20] = target: T7, human LILRB2 expressed on cells; assay: flow cytometry, Jurkat-LILRB2 cells; blocked ligand: APC HLA-G monomer tetramer
# [21] = target: T10, LILRA5 expressed on 293T cells (UniProt A6NI73 42-299, limits assumed); assay: flow cytometry on 293T cells transiently expressing LILRA5, antibody 5 µg/mL, APC anti-human Fc; gMFI as fold to IgG staining
# T10 construct: whole, on cells; GFP-tagged, transient
# [22] = target: T11, LILRA2 expressed on 293T cells (UniProt Q8N149 24-483, limits assumed); assay: flow cytometry on 293T cells transiently expressing LILRA2, APC anti-human Fc; gMFI as fold to IgG staining
# T11 construct: whole, on cells; GFP-tagged, transient
# [23] = target: T4, human LILRB1 expressed on cells; assay: flow cytometry, Jurkat-LILRB1 cells; blocked ligand: APC HLA-G trimer tetramer
# [24] = target: T12, LILRA4 expressed on 293T cells (UniProt P59901 24-499, limits assumed); assay: flow cytometry on 293T cells transiently expressing LILRA4, APC anti-human Fc; gMFI as fold to IgG staining
# T12 construct: whole, on cells; GFP-tagged, transient
# [25] = target: T4, human LILRB1 expressed on cells; assay: flow cytometry on CHO-LILRB1 cells, non-linear fit of the curves of FIG. 26A
# [26] = target: T13, LILRB4 expressed on 293T cells (UniProt Q8NHJ6 22-448, limits assumed); assay: flow cytometry on 293T cells transiently expressing LILRB4, APC anti-human Fc; gMFI as fold to IgG staining
# T13 construct: whole, on cells; GFP-tagged, transient
# [27] = target: T9, LILRB1-ECD-HIS (SinoBiological Cat #: …); assay: SPR (Carterra), LILRB1-ECD-his
# [28] = target: T9, LILRB1-ECD-HIS (SinoBiological Cat #: …); assay: BLI (Gator), RB1-ECD-his
# [29] = target: T3, LILRB2-ECD-HIS (SinoBiological Cat #: …); assay: BLI epitope binning (Gator), monomeric antigen
# [30] = target: T9, LILRB1-ECD-HIS (SinoBiological Cat #: …); assay: BLI epitope binning (Gator), monomeric antigen
# [31] = target: T4, human LILRB1 expressed on cells; assay: flow cytometry, CHO-LILRB1 cells; remark: listed apart in the source
# T4 sequence (Q8NHL6 other isoform, or with tags, fused parts or gaps limits assumed): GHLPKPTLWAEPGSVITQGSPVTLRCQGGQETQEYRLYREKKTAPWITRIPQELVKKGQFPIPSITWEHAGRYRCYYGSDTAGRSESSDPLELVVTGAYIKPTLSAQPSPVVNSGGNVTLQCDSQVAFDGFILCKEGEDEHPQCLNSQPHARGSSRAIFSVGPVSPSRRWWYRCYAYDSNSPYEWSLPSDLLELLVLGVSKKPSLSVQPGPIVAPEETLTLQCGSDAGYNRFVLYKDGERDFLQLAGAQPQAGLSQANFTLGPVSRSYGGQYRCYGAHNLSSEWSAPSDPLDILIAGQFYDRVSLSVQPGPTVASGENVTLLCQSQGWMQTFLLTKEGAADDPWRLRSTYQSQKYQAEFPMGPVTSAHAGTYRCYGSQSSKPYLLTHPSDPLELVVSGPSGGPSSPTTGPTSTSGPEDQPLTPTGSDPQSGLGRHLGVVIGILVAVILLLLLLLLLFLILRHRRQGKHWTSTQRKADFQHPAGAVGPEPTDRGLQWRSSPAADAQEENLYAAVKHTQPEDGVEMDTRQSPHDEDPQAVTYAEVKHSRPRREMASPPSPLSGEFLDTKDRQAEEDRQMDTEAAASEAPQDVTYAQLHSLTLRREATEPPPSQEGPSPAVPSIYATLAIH
# T1 sequence (O75019 17-489): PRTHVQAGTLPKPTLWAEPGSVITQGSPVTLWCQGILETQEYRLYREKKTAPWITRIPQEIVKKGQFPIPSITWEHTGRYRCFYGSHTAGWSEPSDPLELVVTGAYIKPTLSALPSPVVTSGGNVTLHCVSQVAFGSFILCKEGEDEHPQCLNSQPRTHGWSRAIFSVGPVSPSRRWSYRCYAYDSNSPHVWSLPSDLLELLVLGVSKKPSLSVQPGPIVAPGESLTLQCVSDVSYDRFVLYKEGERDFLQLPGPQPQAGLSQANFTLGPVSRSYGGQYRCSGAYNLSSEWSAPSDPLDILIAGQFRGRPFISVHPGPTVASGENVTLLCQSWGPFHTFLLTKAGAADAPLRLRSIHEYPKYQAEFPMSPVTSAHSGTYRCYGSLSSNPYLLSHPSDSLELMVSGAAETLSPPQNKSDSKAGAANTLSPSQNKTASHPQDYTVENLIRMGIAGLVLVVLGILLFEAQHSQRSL
# T7 sequence (Q8N423 other isoform, or with tags, fused parts or gaps limits assumed): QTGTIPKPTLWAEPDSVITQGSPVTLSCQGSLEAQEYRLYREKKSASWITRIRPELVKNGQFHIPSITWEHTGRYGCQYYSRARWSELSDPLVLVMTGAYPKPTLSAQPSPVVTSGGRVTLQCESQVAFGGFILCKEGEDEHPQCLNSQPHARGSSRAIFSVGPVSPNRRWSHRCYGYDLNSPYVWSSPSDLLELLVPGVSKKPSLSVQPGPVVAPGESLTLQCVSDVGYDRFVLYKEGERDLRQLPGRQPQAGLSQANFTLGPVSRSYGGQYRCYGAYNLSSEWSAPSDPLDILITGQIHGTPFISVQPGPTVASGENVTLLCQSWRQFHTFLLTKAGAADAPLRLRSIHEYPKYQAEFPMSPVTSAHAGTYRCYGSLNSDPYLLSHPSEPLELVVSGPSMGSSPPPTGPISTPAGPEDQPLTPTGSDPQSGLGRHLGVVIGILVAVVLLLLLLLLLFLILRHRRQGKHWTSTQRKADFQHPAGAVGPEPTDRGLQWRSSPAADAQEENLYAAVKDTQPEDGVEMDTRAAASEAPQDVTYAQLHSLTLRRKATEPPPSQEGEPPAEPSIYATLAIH
# T3 sequence (Q8N423 other isoform, or with tags, fused parts or gaps H02H H02H): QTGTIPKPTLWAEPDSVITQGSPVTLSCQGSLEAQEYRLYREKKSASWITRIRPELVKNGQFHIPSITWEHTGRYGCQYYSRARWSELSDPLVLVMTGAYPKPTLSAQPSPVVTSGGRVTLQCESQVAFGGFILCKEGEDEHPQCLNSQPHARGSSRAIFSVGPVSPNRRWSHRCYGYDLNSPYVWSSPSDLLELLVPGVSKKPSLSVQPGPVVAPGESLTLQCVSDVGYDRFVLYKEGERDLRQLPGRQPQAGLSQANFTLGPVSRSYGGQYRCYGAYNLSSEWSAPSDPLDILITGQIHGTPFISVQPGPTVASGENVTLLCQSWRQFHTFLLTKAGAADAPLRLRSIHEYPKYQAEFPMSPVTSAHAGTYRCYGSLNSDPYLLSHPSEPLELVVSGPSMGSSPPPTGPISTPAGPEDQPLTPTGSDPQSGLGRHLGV
# T9 sequence (Q8NHL6 other isoform, or with tags, fused parts or gaps H02H H02H): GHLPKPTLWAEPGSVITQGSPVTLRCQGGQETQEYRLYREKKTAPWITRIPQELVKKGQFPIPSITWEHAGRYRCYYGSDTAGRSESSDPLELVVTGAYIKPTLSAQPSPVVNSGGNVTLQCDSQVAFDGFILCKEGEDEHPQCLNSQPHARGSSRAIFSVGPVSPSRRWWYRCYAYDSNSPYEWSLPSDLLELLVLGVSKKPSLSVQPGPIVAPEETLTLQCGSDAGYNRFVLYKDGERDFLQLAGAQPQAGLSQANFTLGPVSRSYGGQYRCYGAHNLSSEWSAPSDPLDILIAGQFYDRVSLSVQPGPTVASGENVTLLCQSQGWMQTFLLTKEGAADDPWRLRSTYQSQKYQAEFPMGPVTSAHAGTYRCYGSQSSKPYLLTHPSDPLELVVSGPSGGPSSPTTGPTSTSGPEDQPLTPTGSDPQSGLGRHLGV
# T2 sequence (Q6PI73 24-481): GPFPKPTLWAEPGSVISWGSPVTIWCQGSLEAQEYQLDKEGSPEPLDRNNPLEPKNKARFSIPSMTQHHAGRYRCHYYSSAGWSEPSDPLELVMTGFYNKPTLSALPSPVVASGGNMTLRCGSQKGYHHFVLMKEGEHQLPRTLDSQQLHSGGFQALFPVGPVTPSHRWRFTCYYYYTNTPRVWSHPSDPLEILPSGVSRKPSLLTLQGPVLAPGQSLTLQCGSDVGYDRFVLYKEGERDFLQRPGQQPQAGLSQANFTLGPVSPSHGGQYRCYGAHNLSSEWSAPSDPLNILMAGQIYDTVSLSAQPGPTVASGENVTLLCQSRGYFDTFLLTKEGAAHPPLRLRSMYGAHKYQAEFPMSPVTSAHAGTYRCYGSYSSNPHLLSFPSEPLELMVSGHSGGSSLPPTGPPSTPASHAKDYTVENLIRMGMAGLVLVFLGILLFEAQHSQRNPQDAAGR
# T6 sequence (O75023 24-590 limits assumed): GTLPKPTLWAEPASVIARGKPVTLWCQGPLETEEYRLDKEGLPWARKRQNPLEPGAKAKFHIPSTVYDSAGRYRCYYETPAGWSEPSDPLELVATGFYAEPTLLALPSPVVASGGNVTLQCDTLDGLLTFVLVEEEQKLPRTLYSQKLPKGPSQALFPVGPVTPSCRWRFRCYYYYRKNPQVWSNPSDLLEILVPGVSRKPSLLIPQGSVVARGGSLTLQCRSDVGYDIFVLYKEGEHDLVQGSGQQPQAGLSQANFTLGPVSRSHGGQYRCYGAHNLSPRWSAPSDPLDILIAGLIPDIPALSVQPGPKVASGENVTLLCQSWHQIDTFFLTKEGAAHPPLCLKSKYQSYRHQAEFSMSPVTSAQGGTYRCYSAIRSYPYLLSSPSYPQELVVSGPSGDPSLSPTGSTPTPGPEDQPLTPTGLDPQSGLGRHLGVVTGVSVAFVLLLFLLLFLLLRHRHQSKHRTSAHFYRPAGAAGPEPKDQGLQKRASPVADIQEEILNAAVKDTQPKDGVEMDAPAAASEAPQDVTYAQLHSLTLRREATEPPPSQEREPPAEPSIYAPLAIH
# T8 sequence (Q8N6C8 24-439 limits assumed): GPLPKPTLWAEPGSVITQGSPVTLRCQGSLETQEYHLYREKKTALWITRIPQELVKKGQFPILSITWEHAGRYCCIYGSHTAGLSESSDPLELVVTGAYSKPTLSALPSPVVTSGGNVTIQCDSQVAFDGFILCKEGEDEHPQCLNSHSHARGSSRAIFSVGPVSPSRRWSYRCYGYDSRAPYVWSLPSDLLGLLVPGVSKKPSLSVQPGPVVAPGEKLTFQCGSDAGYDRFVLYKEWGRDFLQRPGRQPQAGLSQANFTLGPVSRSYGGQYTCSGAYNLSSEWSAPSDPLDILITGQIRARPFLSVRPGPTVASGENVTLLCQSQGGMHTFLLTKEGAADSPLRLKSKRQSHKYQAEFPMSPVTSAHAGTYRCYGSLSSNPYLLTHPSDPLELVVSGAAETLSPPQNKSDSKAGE
# T10 sequence (A6NI73 42-299 limits assumed): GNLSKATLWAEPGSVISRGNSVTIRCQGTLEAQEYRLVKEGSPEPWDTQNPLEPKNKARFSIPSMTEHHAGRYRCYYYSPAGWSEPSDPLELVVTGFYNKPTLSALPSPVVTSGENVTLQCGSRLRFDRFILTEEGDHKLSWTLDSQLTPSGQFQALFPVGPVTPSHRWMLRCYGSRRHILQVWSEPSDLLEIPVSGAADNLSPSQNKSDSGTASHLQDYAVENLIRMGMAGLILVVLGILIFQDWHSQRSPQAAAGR
# T12 sequence (P59901 24-499 limits assumed): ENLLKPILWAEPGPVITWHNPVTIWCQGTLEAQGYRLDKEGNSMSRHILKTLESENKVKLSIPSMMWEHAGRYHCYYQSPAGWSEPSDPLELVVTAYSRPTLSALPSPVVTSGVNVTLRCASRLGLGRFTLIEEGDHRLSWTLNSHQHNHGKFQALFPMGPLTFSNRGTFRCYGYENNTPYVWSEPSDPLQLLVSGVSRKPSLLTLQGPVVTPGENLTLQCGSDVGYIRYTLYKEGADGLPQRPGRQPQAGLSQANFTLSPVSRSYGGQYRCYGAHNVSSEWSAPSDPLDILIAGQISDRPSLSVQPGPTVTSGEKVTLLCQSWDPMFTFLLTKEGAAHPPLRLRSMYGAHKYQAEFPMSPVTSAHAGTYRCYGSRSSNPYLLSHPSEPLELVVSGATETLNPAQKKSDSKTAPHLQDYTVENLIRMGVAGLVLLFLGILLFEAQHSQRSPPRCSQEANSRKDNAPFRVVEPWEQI
binder,measurement,setting,value
"D2M002-026 (antibody, V domains shown, Hit; also called clone #26) VH: QVQLQQPGAELMKPGASVKISCKATGYTFSSYWIEWVKQRPGHGLEWIGEILPGDGSTNYNAKFKGQATFTADTSSNTAYMQFSSLTSEDSAVYYCARSGAGGYDSGAFAYWGQGTLVTVSS VL: DIVLTQSPASLAVSLGQRATISCRASESVDTYGNSFMHWYQQKPGQPPKLLVYRTSNLESGIPARFSGSGSGTDFTLTINPVEADDVATYYCQQSNEDPWTFGGGTKLEIK",EC50,[1],0.0877 µg/mL
same,MaxMFI,[1],28100
same,binding result,[2],no binding (tested: 5 µg/mL)
same,Kd,[3],0.0608 nM
same,koff,[3],4.53e-05 s⁻¹
same,kon,[3],745000 M⁻¹ s⁻¹
same,EC50,[4],1.02 µg/mL
same,EC50 (read off the curve),[5],~0.4 µg/mL
same,binding result,[6],no binding (tested: 5 µg/mL)
same,EC50 (read off the curve),[7],~0.09 µg/mL
same,binding result,[8],no binding (tested: 5 µg/mL)
same,EC50 (read off the curve),[9],~0.2 µg/mL
same,IC50,[10],0.197 µg/mL
same,EC50,[11],2.63 µg/mL
same,gMFI (max),[11],35500
same,Kd,[12],0.103 nM
same,EC50,[13],0.18 µg/mL
same,MaxMFI,[13],31800
same,EC50,[14],1.94 µg/mL
same,binding result,[15],no binding (tested: 5 µg/mL)
same,Kd,[16],0.0286 nM
same,Kd,[17],0.737 nM
same,EC50,[18],0.106 µg/mL
same,EC50,[19],0.818 µg/mL
same,gMFI (max),[19],43200
same,IC50,[20],0.023 µg/mL
same,binding result,[21],binds
same,binding result,[22],no binding (tested: 5 µg/mL)
same,IC50,[23],0.34 µg/mL
same,binding result,[24],no binding (tested: 5 µg/mL)
same,EC50,[25],0.4 µg/mL
same,MaxMFI,[25],113000
same,binding result,[26],no binding (tested: 5 µg/mL)
same,Kd,[27],0.382 nM
same,koff,[27],2.79e-05 s⁻¹
same,kon,[27],73100 M⁻¹ s⁻¹
same,Kd,[28],0.689 nM
"Anti-LILRB1/2 antibody Hz73D1.v1 (antibody, human IgG1, kappa, N297G, V domains shown, also called NGM707) VH: QVQLVQSGAEVKKPGASVKVSCKASGYTFTDYYINWVRQAPGQGLEWMGNVNPNDGGTTYNQKFKGRVTMTTDTSTSTAYMELRSLRSDDTAVYYCARREIYFYGTIYYYAMDYWGQGTLVTVSS VL: DIQLTQSPSFLSASVGDRVTITCRASESVDYYGNSFMYWYQQKPGKAPKLLIYFASNLESGVPSRFSGSGSGTEFTLTISSLQPEDFATYYCQQNNEDPWTFGGGTKVEIKR",binding result,[29],binds
same,binding result,[30],binds
"#1 (antibody, human IgG1, V domains shown, also called D2M002-001) VH: EVQLQQSGPELVKPGASVKMSCKASGYTFTRYVMHWVKQKPGQGLEWIGYINPNNDGTKYNEKFKGKVTLTSDKSSSTAYMELSSLTSEDSAVYYCARGDLEILPYYDHARNAMDYWGQGTSVTVSS VL: DIVMTQSPASQSASLGESVIITCRASGNIHNYLAWYQQKQGKSPQLLVYNAKTLADGVPSRFSGSGSGTQYSLKINSLQPEDFGTYYCQHFWSSPPTFGGGTKLELK",EC50 (read off the curve),[31],~0.09 µg/mL
same,EC50,[11],0.033 µg/mL
same,gMFI (max),[11],16300
same,Kd,[16],2.08 nM
same,Kd,[17],14.7 nM
same,EC50,[19],0.093 µg/mL
same,gMFI (max),[19],26800
"Anti-LILRB1 antibody 15G8 (antibody, human IgG4 S228P, kappa, also called BND-22) heavy: not shown light: DIQMTQSPSSLSASVGDRVTITCRTSQDISNYLNWYQQKPGKAVKLLISYTSRLHSGVPSRFSGSGSGTDYTLTISSLQPEDFATYYCQQGNTLPTFGQGTKLEIKRTVAAPSVFIFPPSDEQLKSGTASVVCLLNNFYPREAKVQWKVDNALQSGNSQESVTEQDSKDSTYSLSSTLTLSKADYEKHKVYACEVTHQGLSSPVTKSFNRGEC",binding result,[30],binds
"Anti-LILRB2 antibody J-19.H1 (antibody, human IgG4 S228P, kappa, V domains shown, also called JTX-8064) VH: QVTLKESGPGILQPSHTLSLTCSFSGFSLNTYAMGVSWIRQPSGKGLEWLASIWWNGNKYNNPSLKSRLTVSKDTSNNQAFLKVTSVDTADTATYYCAHSRIIRFTDYVMDAWGQGASVTVSS VL: DIQMTQSPASLSTFLGEPVTIECRASEDIYNDLAWYQQKPGKSPQLLIYNANSLHTGVPSRFSGSGSGTQYSLKINSLQSEDVASYFCQQYYDYPLTFGSGTKLEIKR",binding result,[29],binds
